Here are results for two substances from publication PMC8459933.

Assay [1] addresses PltB subunit of typhoid toxin (Salmonella enterica serovar Typhi). Kind of assay: cryo-EM structure.
The target in assay [2] is tagless PltB pentamer (Salmonella enterica serovar Typhi). Kind of assay: SEC. (SEC sorts molecules by how far they enter the pores of the column.)

In general, stoichiometry N refers to the number of molecules, sites or subunits per partner or assembly.

In assay [1], “PltB subunit of typhoid toxin (natural protein)” showed a stoichiometry N of 5.
tagless PltB pentamer (natural protein) had a stoichiometry N in assay [2] of 5.
